Two molecules from US20260097113A1 (Pfizer, published 2026) can be followed below.

Assay [1] addresses RSV A + RSV B bivalent composition (RSV subtype A; RSV subtype B). Briefly: AM14 Fab titration by SEC; Low-Fast cycle; T0. (In general: Size exclusion chromatography separates by hydrodynamic size, large species first.)
The target is the same in assay [2]. As to the kind of experiment: AM14 Fab titration by SEC; Target cycle; 1 M 40°C.
Assay [3] shares this target. As to the kind of experiment: AM14 Fab titration by SEC; Low-Fast cycle; 3 M 25°C.
For assay [4] the target is unchanged. As to the kind of experiment: AM14 Fab titration by SEC; High-Slow 1 cycle; 8 M 25°C.
Assay [5] has the same target. As to the kind of experiment: AM14 Fab titration by SEC; High-Slow 2 cycle; 3 M 40°C.
Assay [6] has the same target. Briefly: AM14 Fab titration by SEC; High-Slow 1 cycle; T0 (second value).
Assay [7] shares this target. Briefly: AM14 Fab titration by SEC; High-Slow 2 cycle; 1 M 25°C (second value).
Assay [8] concerns the target T1, RSV F protein of subtype A comprising a polypeptide of SEQ ID NO: 1 and a polypeptide of SEQ ID NO: 2 (RSV subtype A, UniProt P11209 137-513; P03420 26-109).
T1 construct: Stabilized prefusion F trimer made of three F2-F1 heterodimers; Produced recombinantly in CHO cells; also called RSV A; RSVA
T1 chain 1: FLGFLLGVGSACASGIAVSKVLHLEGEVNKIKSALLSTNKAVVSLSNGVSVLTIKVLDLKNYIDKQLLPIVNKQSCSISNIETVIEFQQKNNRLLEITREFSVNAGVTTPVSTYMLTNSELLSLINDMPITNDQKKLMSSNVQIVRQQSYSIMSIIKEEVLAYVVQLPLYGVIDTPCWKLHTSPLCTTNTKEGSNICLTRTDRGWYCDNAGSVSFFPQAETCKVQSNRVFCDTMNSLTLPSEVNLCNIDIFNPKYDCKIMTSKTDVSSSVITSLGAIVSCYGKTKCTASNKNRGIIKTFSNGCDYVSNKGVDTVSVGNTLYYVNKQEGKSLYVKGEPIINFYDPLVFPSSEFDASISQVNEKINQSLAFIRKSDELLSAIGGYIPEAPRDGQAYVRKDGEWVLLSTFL
T1 chain 2: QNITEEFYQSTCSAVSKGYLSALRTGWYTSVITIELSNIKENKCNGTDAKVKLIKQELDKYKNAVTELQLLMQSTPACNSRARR
Briefly: AM14 ELISA; F17 (pH 7, 50 mM NaCl, 4.5% trehalose); T0. Background: An ELISA detects its analyte on a solid surface through an enzyme-linked reagent.

Assay [9] concerns the target T1, RSV F protein of subtype A comprising a …. Briefly: AM14 ELISA; F2 (pH 8, 0 mM NaCl, 0% sucrose); 1 wk 5°C.
Assay [10] has the same target. As to the kind of experiment: AM14 ELISA; F16 (pH 6, 0 mM NaCl, 0% sucrose); 1 wk 5°C.
Assay [11] has the same target. Briefly: AM14 ELISA; F16 (pH 6, 0 mM NaCl, 0% sucrose); 2 wk 5°C.
Assay [12] has the same target. Briefly: AM14 ELISA; F15 (pH 6, 0 mM NaCl, 9% sucrose); 2 wk 25°C.
Assay [13] has the same target. Briefly: AM14 ELISA; F16 (pH 6, 0 mM NaCl, 0% sucrose); 2 wk 25°C.
The target is the same in assay [14]. As to the kind of experiment: AM14 ELISA; F7 (pH 6, 100 mM NaCl, 0% sucrose); 2 wk 5°C.
The target is the same in assay [15]. As to the kind of experiment: AM14 ELISA; F6 (pH 7, 0 mM NaCl, 4.5% sucrose); 1 wk 25°C.
For assay [16] the target is unchanged. As to the kind of experiment: AM14 ELISA; F6 (pH 7, 0 mM NaCl, 4.5% sucrose); 2 wk 25°C.
The target is the same in assay [17]. As to the kind of experiment: AM14 ELISA; F11 (pH 7, 50 mM NaCl, 9.0% sucrose); 2 wk 25°C.
For assay [18] the target is unchanged. Briefly: AM14 ELISA; F14 (pH 7, 50 mM NaCl, 4.5% sucrose); 1 wk 25°C.

Take AM14 Fab: the Prefusion Content (%) turned out to be 76% in assay [1]; 64% in [2]; 66% in assay [3]; 63% in [4]; 59% in [5]; 68% in assay [6]. The Prefusion Content (%) in assay [7] was determined as 59%.

B1: AM14 (trimeric prefusion specific antibody of the AM14 ELISA) (antibody, V domains shown)
VH: EVQLVESGGGVVQPGRSLRLSCAASGFSFSHYAMHWVRQAPGKGLEWVAVISYDGENTYYADSVKGRFSISRDNSKNTVSLQMNSLRPEDTALYYCARDRIVDDYYYYGMDVWGQGATVTVSS
VL: DIQMTQSPSSLSASVGDRVTITCQASQDIKKYLNWYHQKPGKVPELLMHDASNLETGVPSRFSGRGSGTDFTLTISSLQPEDIGTYYCQQYDNLPPLTFGGGTKVEIKR
notes: Antibody as used in the AM14 ELISA, detected with an HRP-labeled secondary antibody
B1: the “AM14 prefusion content (%), relative to standard” value in [8] stood at 86%; in assay [9], 86%; in [10], 65%; in [11], 67%; in [12] it was 91%; in [13], 76%. The “AM14 prefusion content (%), relative to standard” value in assay [14] worked out at 38%; in assay [15], 102%; in [16], 83%; in assay [17] it was 82%; in [18] it was 77%.
